Results published in patent US20190241653A1 (NATIONAL RESEARCH COUNCIL OF CANADA, published 2019).

Key:
[1] = target: T1, receptor(s) of FC5 on HBEC-D3 cells (human microvascular brain endothelial cells) (human, UniProt Q9NV96 2-361); assay: Mirrorball microplate cytometry on HBEC-D3 cells in suspension, anti-c-myc Alexa 488 detection
T1 construct: whole, on cells; The assay used whole, untransfected endothelial cells; also called human brain endothelial cells; TMEM30A
T1 sequence (looked up): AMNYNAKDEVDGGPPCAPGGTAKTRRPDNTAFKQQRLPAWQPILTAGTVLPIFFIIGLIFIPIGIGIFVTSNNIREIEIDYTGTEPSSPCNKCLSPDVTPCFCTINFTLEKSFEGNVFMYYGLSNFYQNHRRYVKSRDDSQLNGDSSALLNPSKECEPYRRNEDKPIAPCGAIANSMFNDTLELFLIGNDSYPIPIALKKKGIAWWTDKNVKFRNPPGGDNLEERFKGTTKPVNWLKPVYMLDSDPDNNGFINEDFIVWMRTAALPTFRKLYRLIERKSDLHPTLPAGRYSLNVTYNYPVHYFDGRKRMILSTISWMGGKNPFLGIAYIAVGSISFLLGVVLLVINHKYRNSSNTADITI
Procedure: Mirrorball 6 High Sensitivity Microplate Cytometry (TTP Labtech): All buffers and reagents were pre-chilled to 4° C. […] mM EDTA and Mirrorball assay buffer—Live Cell Imaging Solution, LCIB (Invitrogen, 140 mM NaCl, 2.5 mM KCl, 1.8 mM CaCl₂, 1.0 mM MgCl₂, 20 mM Hepes, pH 7.4, mOsm=300). A 20 μl volume of a 1:1 mix of LCIB and 0.5×PBS/2.5 mM EDTA was added to all wells of each 384 well Mirrorball assay plate (Corning 3712); with the exception of row A which received 40 μl of 1000 nM test VHH antibody. Serial dilutions were prepared for each test variant within the Mirrorball 384 well assay plate. A 16-channel Finn pipette (Thermo Scientific) was used to transfer 20 μl of VHH antibody from row A-columns 1-24 into row B-columns 1-24 mixing 8×, then transferring 20 μl of VHH antibody from row B-columns 1-24 into row C-columns 1-24 mixing 8×. Dilutions were repeated until row G-columns 1-24 to create 7 point curve for each VHH antibody variant. A second set of test VHH antibody variants (1000 nM) were added to row I-columns 1-24 and the dilution protocol was repeated until row 0-columns 1-24. Row H-columns 1-24 were reserved on each plate for the reference FC5-H7 VHH single domain antibody. Row P-columns 1-24 received no antibody; this was background control for non-specific binding of the secondary to the cells of interest; thus 48 variants could be tested on each 384 well Mirrorball assay plate. Immortalized adult rat brain microvascular endothelial cells (SV-ARBEC) and/or human microvascular brain endothelial cells (HBEC-D3) were dissociated in Accutase solution (Sigma Aldrich) to generate single cell populations. Cells were washed in LCIB then centrifuged at 200×g, 5 min to pellet. Wash buffer was removed and the cell pellet was re-suspended into 1 mL of LCIB. Cell number was calculated using a Bio-Rad TC20 automated cell counter with Trypan Blue dye to assess viability. The cells were diluted to 350,000 live cells/ml using LCIB. A fluorescent conjugate c-myc Alexa 488 detection antibody (1600 ng/ml, Santa Cruz Biotechnology) supplemented with Draq 5 nuclear stain (2 uM, Cell Signaling) was prepared in LCIB assay buffer.

[2] = target: receptor(s) of FC5 on SV-ARBEC cells (SV40-immortalized adult rat brain microvascular endothelial cells) (rat) (UniProt Q6AY41); assay: Mirrorball microplate cytometry on SV-ARBEC cells in suspension, anti-c-myc Alexa 488 detection

Row | Binder | HBEC-D3 binding (MMFI at 1.3 µM antibody) [1] [MMFI] | SV-ARBEC binding (MMFI at 1.3 µM antibody) [2] [MMFI]
1 | FC5 VHH (parental camelid single domain antibody) (VHH, Llama-derived VHH expressed in E. coli in fusion with His5 and c-myc tags; also called FC5 camelid; sdAb FC5; not shown: His5 and c-myc tags) VHH: DVQLQASGGGLVQAGGSLRLSCAASGFKITHYTMGWFRQAPGKEREFVSRITWGGDNTFYSNSVKGRFTISRDNAKNTVYLQMNSLKPEDTADYYCAAGSTSTATPLRVDYWGKGTQVTVSS | 39.1 | 20.3
2 | FC5-H3 (VHH, Humanized variant of FC5, expressed with His5 and c-myc tags; not shown: His5 and c-myc tags) VHH: EVQLVESGGGLVQPGGSLRLSCAASGFKITHYTMGWFRQAPGKGLEFVSRITWGGDNTFYSNSVKGRFTISRDNSKNTVYLQMNSLRAEDTAVYYCAAGSTSTATPLRVDYWGQGTLVTVSS | 43.9 | 40.2
3 | FC5-H7 (VHH, Humanized variant of FC5, expressed with His5 and c-myc tags; not shown: His5 and c-myc tags) VHH: EVQLVESGGGLVQPGGSLRLSCAASGFKITHYTMGWFRQAPGKEREFVSRITWGGDNTFYSNSVKGRFTISRDNSKNTLYLQMNSLRAEDTAVYYCAAGSTSTATPLRVDYWGQGTLVTVSS | 72.8 | 64.2
4 | FC5-H1 (VHH, Humanized variant of FC5, expressed with His5 and c-myc tags; not shown: His5 and c-myc tags) VHH: EVQLVESGGGLVQPGGSLRLSCAASGFKITHYTMGWVRQAPGKGLEWVSRITWGGDNTFYSNSVKGRFTISRDNSKNTLYLQMNSLRAEDTAVYYCAAGSTSTATPLRVDYWGQGTLVTVSS | 66.4 | 27
5 | FC5-H2 (VHH, Humanized variant of FC5, expressed with His5 and c-myc tags; not shown: His5 and c-myc tags) VHH: EVQLVESGGGLVQPGGSLRLSCAASGFKITHYTMGWVRQAPGKGLEWVSRITWGGDNTFYSNSVKGRFTISRDNSKNTVYLQMNSLRAEDTAVYYCAAGSTSTATPLRVDYWGQGTLVTVSS | 31 | 23.1
